Results as given in the supplement of paper PMC7125110.
± gives the standard error. This sample holds only a part of the variants without activity.

B1: glmS ribozyme (parent)
chain: AUAAAAGCGCCAGAACUACAGAAAUGUAGUUGACGAGGAGGAGGUUUAUCGAAUUUUCGGCGGAUGCCUCCAAA

What was measured:
Conditions in all cases: with glucosamine-6-phosphate
glucosamine-6-phosphate [1] = variants of: B1; assay: self-cleavage kobs at 640 uM GlcN6P; higher = faster cleavage; RNA array
Procedure, shortened: (§1)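 Using a hybridised Cy3 probe at 37 °C, barcoded ribozyme variants transcribed in situ by E. coli RNA polymerase on sequenced MiSeq chips were monitored across tiles imaged over ~14 h. The flow contained glucosamine-6-phosphate from 40 μM to 10 mM in HEPES/KCl/Mg(OAc)2 buffer. Signals were normalised to baseline and to non-cleaving reference variants before per-tile medians were fit to one- or two-exponential decays to yield kobs. Weighted Michaelis–Menten fits across concentrations gave kcat and KM.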

glucosamine-6-phosphate [2] = variants of: B1; assay: self-cleavage kobs at 2500 uM GlcN6P; higher = faster cleavage; RNA array
Procedure, shortened: as §1

glucosamine-6-phosphate [3] = variants of: B1; assay: self-cleavage kobs at 10000 uM GlcN6P; higher = faster cleavage; RNA array
Procedure, shortened: as §1

Variant	self-cleavage kobs at 640 uM GlcN6P (glucosamine-6-phosphate [1]) [s⁻¹]	self-cleavage kobs at 2500 uM GlcN6P (glucosamine-6-phosphate [2]) [s⁻¹]	self-cleavage kobs at 10000 uM GlcN6P (glucosamine-6-phosphate [3]) [s⁻¹]
C10G G44U C70U	< 1e-05		
G37A G43U G62U G66C C67A	< 1e-05	< 1e-05	< 1e-05
C11U G41U U45C	< 1e-05		
A15G G37U C58A C70A	6.04e-05 ± 1.8e-05		
G7U G13U A42G	< 1e-05		
C11U G35U C68G C70A	0.000984 ± 0.00032		
G44C C68A U69G	< 1e-05		
C34G U46A U49A	< 1e-05		
C11U G37A U57G G63A	< 1e-05		
A33G A36G G38A	< 1e-05		
A12U G44C A48U C58G C67G C71U	< 1e-05	< 1e-05	
G41A U47A A52C	< 1e-05		
U46C C67U	0.000202 ± 5.2e-05	0.000469 ± 0.00013	0.000426 ± 8.9e-05
C16A G41U	< 1e-05		
C50A G51U G59A U69A	0.000511 ± 0.00021		
C16A C50G G62A A64U	6.11e-05 ± 2.7e-05	9.04e-05 ± 3.5e-05	
A6C A42U C70G	< 1e-05	< 1e-05	
A12G C16U U49A	< 1e-05		
G63C U69G	5.78e-05 ± 2.2e-05		
C8U G43A C58G	< 1e-05	< 1e-05	
C8U G13A G35A G38A G63A C68U	0.001 ± 0.00031		
G40A G51A U55A	< 1e-05		
G32U A39G C71U	0.000114 ± 3.4e-05	0.00038 ± 0.0001	

Variant	self-cleavage kobs at 640 uM GlcN6P (glucosamine-6-phosphate [1]) [s⁻¹]	self-cleavage kobs at 2500 uM GlcN6P (glucosamine-6-phosphate [2]) [s⁻¹]	self-cleavage kobs at 10000 uM GlcN6P (glucosamine-6-phosphate [3]) [s⁻¹]
C8U C10U C11U G51C	< 1e-05		
A14G A36U C68A	< 1e-05	0.00425 ± 0.0019	
C16A G63U C67U	0.000112 ± 4.7e-05		
U31A A42U G59U	< 1e-05		
C11G U45G C71U	< 1e-05	< 1e-05	
U31A A52G U69G	7.54e-05 ± 3.6e-05	7.91e-05 ± 2.3e-05	
G37U G41C G60U	< 1e-05		
A33C G35A U46A	< 1e-05		
A14G G35U	< 1e-05	< 1e-05	
A14U G40A U56G U57C	< 1e-05	< 1e-05	
C34G U54A A64G	< 1e-05	< 1e-05	
G44C U47C A53G	< 1e-05		
C11U A15U U57G C58U C67U	0.00016 ± 4e-05	0.000131 ± 4.9e-05	
C8G C16U U57A	< 1e-05	< 1e-05	
G35C G43U G60C	< 1e-05		< 1e-05
C8U A33U U46G A53G U55A	< 1e-05	< 1e-05	
A12U U45A U65G	0.000665 ± 0.00016		
A6C G41A U54G G59A G62C	< 1e-05		< 1e-05
C8U G9C C50A G51U G60U	< 1e-05		
A36G A39U G43A U45G G59A	< 1e-05		
C8U G63U C68U	< 1e-05		
C34U A39C C50G	< 1e-05		
A14G A52U G60A	< 1e-05		

Variant	self-cleavage kobs at 640 uM GlcN6P (glucosamine-6-phosphate [1]) [s⁻¹]	self-cleavage kobs at 2500 uM GlcN6P (glucosamine-6-phosphate [2]) [s⁻¹]	self-cleavage kobs at 10000 uM GlcN6P (glucosamine-6-phosphate [3]) [s⁻¹]
C19A U54C C58A C68G	9.88e-05 ± 2.4e-05	0.00036 ± 0.0001	
A39U A48U U55C G59U	< 1e-05	< 1e-05	
G29C U47A C50A	< 1e-05		< 1e-05
G38C G43A A64G	< 1e-05		
G13A U45C G66A	0.000124 ± 3e-05	9.89e-05 ± 2.4e-05	0.000343 ± 0.00011
A15C A33C G59C	< 1e-05	< 1e-05	
A14U G40C G44C U45C C70U	< 1e-05	< 1e-05	
C19A G44U	2.94e-05 ± 1.3e-05	0.000114 ± 2.7e-05	
A39G U47G G59C	< 1e-05		
U57A G63U	< 1e-05		
A12G U30A A52C U54C	< 1e-05	< 1e-05	
G9C A39G G40U	< 1e-05	< 1e-05	< 1e-05
G13C G37C U45G	< 1e-05	< 1e-05	
A12G G26U G38A C68G C71A	0.000109 ± 2e-05	7.22e-05 ± 2.4e-05	
C10U C16U G32A C50G	0.000327 ± 0.00015	9.98e-05 ± 3.8e-05	
A12C U30C U57G U65C	< 1e-05		
G29U C34U U55A	< 1e-05	< 1e-05	
A12G G59C A64U	< 1e-05		
A12U C16G G32A	9.86e-05 ± 2.9e-05	0.000137 ± 4.8e-05	
C50G C61A C67U	0.000392 ± 0.0001	5.47e-05 ± 2.1e-05	
A39U U45G A52G C70A	< 1e-05		
